Data on 30 variants can be found in the RNAGym collection of RNA variant scans (doi:10.1093/molbev/msab373).

B1: Azoarcus group I ribozyme (parent)
chain: GUGCCUUGCGCCGGGAAACCACGCAAGGGAUGGUGUCAAAUUCGGCGAAACCUAAGCGCCCGCCCGGGCGUAUGGCAACGCCGAGCCAAGCUUCGGCGCCUGCGCCGAUGAAGGUGUAGAGACUAGACGGCACCCACCUAAGGCAAACGCUAUGGUGAAGGCAUAGUCCAGGGAGUGGCGAAAGUCACACAAACCGG

Variants of B1 are the subject of this data set. As to the kind of experiment: reverse-splicing fitness (ratio to wild type); higher = more active; in vitro selection; Mg2+ level not given. In a few lines: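 An in vitro group I ribozyme library with randomized positions was T7-transcribed and gel-purified. In triplicate, 10 pmol RNA in EPPS pH 7.5 was reacted with 50 pmoles of a 30-nt RNA substrate for 1 h at 37 °C across several added MgCl2 levels (1–48 mM), then stopped with EDTA. Products were reverse transcribed from a substrate-complementary primer, PCR-amplified and sequenced (HiSeq 4000). Fitness is a variant's read proportion after selection over that before, normalised to wild type.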
In the case of GUGCCUUGCGCCGGGAAACCACGCAAGGGAUGGUGUCAAAUUCGGCGAAACCUAAGCGCCCGCCCGGGCGUAUGGCAACGCGGAGCCAAGCUUCGGCGCCUGCGCCGAUGGAGGUGUAGAGACUAGACGGCACCCACCUAAGGCUAACGUUAUGGUGAAGGCAUAGUCAAGGGAGAGGCGAAAGUCACACAAACCGG, the reverse-splicing fitness was 0.015. For the variant GUGCCUUGCGCCGGGAAACCACGCAAGGGAUGGUGUCAAAUUCGGCGAAACCUAAGCGCCCGCCCGGGCGUAUGGCAACGCGGAGCCAAGCUUCGGCGCCUGCGCCGAUGGAGGUGUAGAGACUAGACGGCACCCACCUAAGGCUAACGUUAUGGUGAAGGCAUAGUCAAGGGAGCGGCGAAAGUCACACAAACCGG, the reverse-splicing fitness was determined as 0.0132.

GUGCCUUGCGCCGGGAAACCACGCAAGGGAUGGUGUCAAAUUCGGCGAAACCUAAGCGCCCGCCCGGGCGUAUGGCAACGCGGAGCCAAGCUUCGGCGCCUGCGCCGAUGGAGGUGUAGAGACUAGACGGCACCCACCUAAGGCUAACGUUAUGGUGAAGGCAUAGUCAAGGGAGGGGCGAAAGUCACACAAACCGG: the reverse-splicing fitness came out at 0.00584. In the case of GUGCCUUGCGCCGGGAAACCACGCAAGGGAUGGUGUCAAAUUCGGCGAAACCUAAGCGCCCGCCCGGGCGUAUGGCAACGCGGAGCCAAGCUUCGGCGCCUGCGCCGAUGGAGGUGUAGAGACUAGACGGCACCCACCUAAGGCUAACGUUAUGGUGAAGGCAUAGUCUAGGGAGUGGCGAAAGUCACACAAACCGG it was 0.0113; in that of GUGCCUUGCGCCGGGAAACCACGCAAGGGAUGGUGUCAAAUUCGGCGAAACCUAAGCGCCCGCCCGGGCGUAUGGCAACGCGGAGCCAAGCUUCGGCGCCUGCGCCGAUGGAGGUGUAGAGACUAGACGGCACCCACCUAAGGCUAACGUUAUGGUGAAGGCAUAGUCAAGGGAGUGGCGAAAGUCACACAAACCGG, 0.00966; in that of GUGCCUUGCGCCGGGAAACCACGCAAGGGAUGGUGUCAAAUUCGGCGAAACCUAAGCGCCCGCCCGGGCGUAUGGCAACGCGGAGCCAAGCUUCGGCGCCUGCGCCGAUGGAGGUGUAGAGACUAGACGGCACCCACCUAAGGCUAACGUUAUGGUGAAGGCAUAGUCGAGGGAGUGGCGAAAGUCACACAAACCGG, 0.00988. In the case of GUGCCUUGCGCCGGGAAACCACGCAAGGGAUGGUGUCAAAUUCGGCGAAACCUAAGCGCCCGCCCGGGCGUAUGGCAACGCGGAGCCAAGCUUCGGCGCCUGCGCCGAUGGAGGUGUAGAGACUAGACGGCACCCACCUAAGGCUAACGUUAUGGUGAAGGCAUAGUCCAGGGAGAGGCGAAAGUCACACAAACCGG it was 0.154.

For GUGCCUUGCGCCGGGAAACCACGCAAGGGAUGGUGUCAAAUUCGGCGAAACCUAAGCGCCCGCCCGGGCGUAUGGCAACGCGGAGCCAAGCUUCGGCGCCUGCGCCGAUGGAGGUGUAGAGACUAGACGGCACCCACCUAAGGCUAACGUUAUGGUGAAGGCAUAGUCCAGGGAGGGGCGAAAGUCACACAAACCGG, the reverse-splicing fitness was 0.0614. Take GUGCCUUGCGCCGGGAAACCACGCAAGGGAUGGUGUCAAAUUCGGCGAAACCUAAGCGCCCGCCCGGGCGUAUGGCAACGCGGAGCCAAGCUUCGGCGCCUGCGCCGAUGGAGGUGUAGAGACUAGACGGCACCCACCUAAGGCUAACGUUAUGGUGAAGGCAUAGUCCAGGGAGCGGCGAAAGUCACACAAACCGG: the reverse-splicing fitness turned out to be 0.165.

GUGCCUUGCGCCGGGAAACCACGCAAGGGAUGGUGUCAAAUUCGGCGAAACCUAAGCGCCCGCCCGGGCGUAUGGCAACGCGGAGCCAAGCUUCGGCGCCUGCGCCGAUGGAGGUGUAGAGACUAGACGGCACCCACCUAAGGCUAACGCUAUGGUGAAGGCAUAGUCCAGGGAGAGGCGAAAGUCACACAAACCGG: the reverse-splicing fitness is 0.257. Under GUGCCUUGCGCCGGGAAACCACGCAAGGGAUGGUGUCAAAUUCGGCGAAACCUAAGCGCCCGCCCGGGCGUAUGGCAACGCGGAGCCAAGCUUCGGCGCCUGCGCCGAUGGAGGUGUAGAGACUAGACGGCACCCACCUAAGGCUAACGCUAUGGUGAAGGCAUAGUCCAGGGAGCGGCGAAAGUCACACAAACCGG stands 0.28.

GUGCCUUGCGCCGGGAAACCACGCAAGGGAUGGUGUCAAAUUCGGCGAAACCUAAGCGCCCGCCCGGGCGUAUGGCAACGCGGAGCCAAGCUUCGGCGCCUGCGCCGAUGGAGGUGUAGAGACUAGACGGCACCCACCUAAGGCUAACGCUAUGGUGAAGGCAUAGUCGAGGGAGUGGCGAAAGUCACACAAACCGG: the reverse-splicing fitness was found to be 0.0101. Under GUGCCUUGCGCCGGGAAACCACGCAAGGGAUGGUGUCAAAUUCGGCGAAACCUAAGCGCCCGCCCGGGCGUAUGGCAACGCGGAGCCAAGCUUCGGCGCCUGCGCCGAUGGAGGUGUAGAGACUAGACGGCACCCACCUAAGGCUAACGCUAUGGUGAAGGCAUAGUCUAGGGAGUGGCGAAAGUCACACAAACCGG stands 0.0127.

Regarding GUGCCUUGCGCCGGGAAACCACGCAAGGGAUGGUGUCAAAUUCGGCGAAACCUAAGCGCCCGCCCGGGCGUAUGGCAACGCGGAGCCAAGCUUCGGCGCCUGCGCCGAUGGAGGUGUAGAGACUAGACGGCACCCACCUAAGGCUAACGCUAUGGUGAAGGCAUAGUCAAGGGAGUGGCGAAAGUCACACAAACCGG, the reverse-splicing fitness was 0.00634. Under GUGCCUUGCGCCGGGAAACCACGCAAGGGAUGGUGUCAAAUUCGGCGAAACCUAAGCGCCCGCCCGGGCGUAUGGCAACGCGGAGCCAAGCUUCGGCGCCUGCGCCGAUGGAGGUGUAGAGACUAGACGGCACCCACCUAAGGCUAACGUUAUGGUGAAGGCAUAGUCGAGGGAGAGGCGAAAGUCACACAAACCGG stands 0.0142. On to GUGCCUUGCGCCGGGAAACCACGCAAGGGAUGGUGUCAAAUUCGGCGAAACCUAAGCGCCCGCCCGGGCGUAUGGCAACGCGGAGCCAAGCUUCGGCGCCUGCGCCGAUGGAGGUGUAGAGACUAGACGGCACCCACCUAAGGCUAACGUUAUGGUGAAGGCAUAGUCGAGGGAGCGGCGAAAGUCACACAAACCGG, for which the reverse-splicing fitness was 0.0152. Under GUGCCUUGCGCCGGGAAACCACGCAAGGGAUGGUGUCAAAUUCGGCGAAACCUAAGCGCCCGCCCGGGCGUAUGGCAACGCGGAGCCAAGCUUCGGCGCCUGCGCCGAUGGAGGUGUAGAGACUAGACGGCACCCACCUAAGGCUAACGUUAUGGUGAAGGCAUAGUCGAGGGAGGGGCGAAAGUCACACAAACCGG stands 0.00611; under GUGCCUUGCGCCGGGAAACCACGCAAGGGAUGGUGUCAAAUUCGGCGAAACCUAAGCGCCCGCCCGGGCGUAUGGCAACGCGGAGCCAAGCUUCGGCGCCUGCGCCGAUGGAGGUGUAGAGACUAGACGGCACCCACCUAAGGCUAACGUUAUGGUGAAGGCAUAGUCCAGGGAGUGGCGAAAGUCACACAAACCGG, 0.261; under GUGCCUUGCGCCGGGAAACCACGCAAGGGAUGGUGUCAAAUUCGGCGAAACCUAAGCGCCCGCCCGGGCGUAUGGCAACGCGGAGCCAAGCUUCGGCGCCUGCGCCGAUGGAGGUGUAGAGACUAGACGGCACCCACCUAAGGCUAACGCUAUGGUGAAGGCAUAGUCUAGGGAGCGGCGAAAGUCACACAAACCGG, 0.0127. Regarding GUGCCUUGCGCCGGGAAACCACGCAAGGGAUGGUGUCAAAUUCGGCGAAACCUAAGCGCCCGCCCGGGCGUAUGGCAACGCGGAGCCAAGCUUCGGCGCCUGCGCCGAUGGAGGUGUAGAGACUAGACGGCACCCACCUAAGGCUAACGCUAUGGUGAAGGCAUAGUCUAGGGAGAGGCGAAAGUCACACAAACCGG, the reverse-splicing fitness amounted to 0.0142. In the case of GUGCCUUGCGCCGGGAAACCACGCAAGGGAUGGUGUCAAAUUCGGCGAAACCUAAGCGCCCGCCCGGGCGUAUGGCAACGCGGAGCCAAGCUUCGGCGCCUGCGCCGAUGGAGGUGUAGAGACUAGACGGCACCCACCUAAGGCUAACGCUAUGGUGAAGGCAUAGUCUAGGGAGGGGCGAAAGUCACACAAACCGG, the reverse-splicing fitness was found to be 0.00489.

Regarding GUGCCUUGCGCCGGGAAACCACGCAAGGGAUGGUGUCAAAUUCGGCGAAACCUAAGCGCCCGCCCGGGCGUAUGGCAACGCGGAGCCAAGCUUCGGCGCCUGCGCCGAUGGAGGUGUAGAGACUAGACGGCACCCACCUAAGGCUAACGCUAUGGUGAAGGCAUAGUCGAGGGAGCGGCGAAAGUCACACAAACCGG, the reverse-splicing fitness came out at 0.0147. With GUGCCUUGCGCCGGGAAACCACGCAAGGGAUGGUGUCAAAUUCGGCGAAACCUAAGCGCCCGCCCGGGCGUAUGGCAACGCGGAGCCAAGCUUCGGCGCCUGCGCCGAUGGAGGUGUAGAGACUAGACGGCACCCACCUAAGGCUAACGCUAUGGUGAAGGCAUAGUCGAGGGAGAGGCGAAAGUCACACAAACCGG, the reverse-splicing fitness worked out at 0.0136.

Take GUGCCUUGCGCCGGGAAACCACGCAAGGGAUGGUGUCAAAUUCGGCGAAACCUAAGCGCCCGCCCGGGCGUAUGGCAACGCGGAGCCAAGCUUCGGCGCCUGCGCCGAUGGAGGUGUAGAGACUAGACGGCACCCACCUAAGGCUAACGCUAUGGUGAAGGCAUAGUCGAGGGAGGGGCGAAAGUCACACAAACCGG: the reverse-splicing fitness is 0.00507.

On to GUGCCUUGCGCCGGGAAACCACGCAAGGGAUGGUGUCAAAUUCGGCGAAACCUAAGCGCCCGCCCGGGCGUAUGGCAACGCGGAGCCAAGCUUCGGCGCCUGCGCCGAUGGAGGUGUAGAGACUAGACGGCACCCACCUAAGGCUAACGCUAUGGUGAAGGCAUAGUCAAGGGAGGGGCGAAAGUCACACAAACCGG, for which the reverse-splicing fitness worked out at 0.0052.

On to GUGCCUUGCGCCGGGAAACCACGCAAGGGAUGGUGUCAAAUUCGGCGAAACCUAAGCGCCCGCCCGGGCGUAUGGCAACGCGGAGCCAAGCUUCGGCGCCUGCGCCGAUGGAGGUGUAGAGACUAGACGGCACCCACCUAAGGCUAACGCUAUGGUGAAGGCAUAGUCAAGGGAGCGGCGAAAGUCACACAAACCGG, for which the reverse-splicing fitness came out at 0.0135. Under GUGCCUUGCGCCGGGAAACCACGCAAGGGAUGGUGUCAAAUUCGGCGAAACCUAAGCGCCCGCCCGGGCGUAUGGCAACGCGGAGCCAAGCUUCGGCGCCUGCGCCGAUGGAGGUGUAGAGACUAGACGGCACCCACCUAAGGCUAACGCUAUGGUGAAGGCAUAGUCAAGGGAGAGGCGAAAGUCACACAAACCGG stands 0.0133; under GUGCCUUGCGCCGGGAAACCACGCAAGGGAUGGUGUCAAAUUCGGCGAAACCUAAGCGCCCGCCCGGGCGUAUGGCAACGCGGAGCCAAGCUUCGGCGCCUGCGCCGAUGGAGGUGUAGAGACUAGACGGCACCCACCUAAGGCUAACGUUAUGGUGAAGGCAUAGUCUAGGGAGAGGCGAAAGUCACACAAACCGG, 0.0134. Regarding GUGCCUUGCGCCGGGAAACCACGCAAGGGAUGGUGUCAAAUUCGGCGAAACCUAAGCGCCCGCCCGGGCGUAUGGCAACGCGGAGCCAAGCUUCGGCGCCUGCGCCGAUGGAGGUGUAGAGACUAGACGGCACCCACCUAAGGCUAACGUUAUGGUGAAGGCAUAGUCUAGGGAGCGGCGAAAGUCACACAAACCGG, the reverse-splicing fitness was found to be 0.0137. As to GUGCCUUGCGCCGGGAAACCACGCAAGGGAUGGUGUCAAAUUCGGCGAAACCUAAGCGCCCGCCCGGGCGUAUGGCAACGCGGAGCCAAGCUUCGGCGCCUGCGCCGAUGGAGGUGUAGAGACUAGACGGCACCCACCUAAGGCUAACGUUAUGGUGAAGGCAUAGUCUAGGGAGGGGCGAAAGUCACACAAACCGG, the reverse-splicing fitness came out at 0.00549.
